Data on ten molecules can be found in patent US10563220B2, “Compositions and methods for efficient targeting of transgenes” (priority 2015, dated 2020).

Experiment [1] concerns negative control hybrid maize. The experiment in a line: PPO herbicide pre-emergence injury, negative control maize. Format: in vivo. To be noted: 20 days after treatment. How it is done: (§1) Transgenic F1 hybrid maize expressing APG6 operably linked to PPO H_N10 was assessed for tolerance to different seven different PPO herbicides: S-3100, Fomesafen, Acifluorfen, Lactofen, Flumioxazin, Sulfentrazone, and Saflufenacil. Pooled seed representing 5 unique events was planted in pots in a greenhouse along with hybrid maize seed as a negative control.
(§2) To test for pre-emergence herbicide tolerance, PPO herbicides were applied individually at one of two rates with six reps per treatment as follows: S-3100 (80 or 160 g ai/ha), fomesafen (Reflex®, 840 or 1680 g ai/ha), flumioxazin (Valor® SX, 210 or 420 g ai/ha), sulfentrazone (Spartan® 4L, 840 or 1680 g ai/ha), and saflufenacil (Sharpen®, 200 or 400 g ai/ha). Plants were rated for percentage of crop injury at 20 days after treatment, and maize seed was included as a negative control. […] Negative control maize plants had injury ratings ranging from 17.5% to 94.2%, with the exception of Saflufenacil, which is expected since this herbicide is marketed for used in conventional maize plants. Data are presented in Table 15 with standard error indicated as +/−.

The test system of experiment [2] is transgenic F1 hybrid maize expressing APG6 operably linked to PPO H_N10. The experiment in a line: PPO herbicide pre-emergence injury, maize with APG6-PPO H_N10. Format: in vivo. To be noted: 20 days after treatment. As to the method: as §1, §2
The subject of experiment [3] is transgenic Brassica napus plants. Nature of the experiment: Dicamba tolerance in R0 Brassica napus, greenhouse. As to conditions: R0 plants with one copy with vector backbone or two copies, tolerant = injury 20% or less, 21 days.
Procedure: Brassica napus variety 65037 Restorer line was used for Agrobacterium-mediated transformation and R0 plants were grown in the greenhouse.
Dicamba tolerance was assessed using R0 plants with one copy of transgene with vector backbone or two copies of transgene. Dicamba tolerance was designated as dicamba injury of 20% or less under greenhouse conditions.
Dicamba tolerance was assessed on R0 plants with a one copy of the transgene. Plants were sprayed in the greenhouse with dicamba (Clarity) at 1 lb ae/acre (2× rate), and dicamba tolerance was determined 14 to 21 days later.
For experiment [4], the system named is R0 transgenic cotton plants. The experiment in a line: S-3100 tolerance of R0 transgenic cotton, greenhouse. To be noted: 20 g ai/ha S-3100 at V2, three days after treatment.
Procedure: Regenerated R0 transgenic plantlets were grown in the greenhouse, and leaf samples taken from the resulting R0 plants were analyzed by PCR to identify plants containing a single copy of an event. Transgenic single-copy R0 plants, each representing a unique event, were sprayed in the greenhouse with the herbicide treatment 20 g ai/ha of S-3100 applied at V2 stage. Additionally, transgenic multi-copy (≥2 copies/plant) were sprayed in the greenhouse with the herbicide treatment 20 g ai/ha of S-3100 applied at V2 stage. Injury ratings were taken at three days after treatment.
Experiment [5] deals with transgenic R1 soybean plants. The experiment in a line: PPO herbicide testing of R1 soybean (S-3100, greenhouse). As to conditions: for Injury R1 stage / Injury V4 stage: ten days after treatment.
Procedure: Regenerated R0 transgenic plantlets were grown in the greenhouse, selfed, and R1 seed was collected. Transgenic R1 plants were sprayed in the greenhouse with one of three herbicide treatments applied at V4 and R1: (1) 5 grams ai/ha S-3100, (2) 10 grams ai/ha S-3100, or (3) 30 grams ai/ha S-3100. Crop injury ratings were assessed at ten days after treatment.
Experiment [6] relates to R1 transgenic cotton plants. The experiment in a line: R1 cotton greenhouse dicamba injury. To be noted: dicamba 1120 g ai/ha at V4; rated 9 days after treatment; DMO SEQ ID NO:18.
Source text: Ten R1 seeds per event from 10 events for each construct and seed from DP393 cotton was planted to evaluate crop tolerance to post-emergence application of dicamba. Dicamba (Clarity) was applied at the V4 stage at 1120 g ai/ha. Crop injury percent ratings were taken 9 days after the treatment.
For experiment [7], the system named is R1 transgenic soybean plants. Nature of the experiment: R1 soybean greenhouse dicamba injury. To be noted: dicamba 1120 g ai/ha at V4; rated 10 days after treatment; DMO SEQ ID NO:18.
Source text: Transgenic soybean plants were generated with two DNA constructs that were identical except for the APG6 CTP. The first DNA construct had APG6 (SEQ ID NO:1) operably linked to DMO (SEQ ID NO:18). The second DNA construct had the optimized APG6 (SEQ ID NO:2) operably linked to DMO (SEQ ID NO:18). Each DNA construct was used to transform A3555 soybean by Agrobacterium mediated transformation methods. Following transformation, R0 transgenic plants containing a single copy of the transgene were identified by PCR assay. Single-copy R0 plants were grown in greenhouse, and R1 seed was harvested. Ten R1 seeds per event for 4 events generated using each of the two DNA constructs and AG3555 seed was planted for evaluation of crop tolerance to post-emergence dicamba treatment under standard greenhouse growth conditions. Dicamba (Clarity) was applied at the V4 stage at 1120 g ai/ha. Crop injury ratings were taken 10 days after the treatment.
Experiment [8] concerns transgenic Brassica napus plants. The experiment in a line: Dicamba tolerance in R1 Brassica napus, greenhouse, three sprays. Format: in vivo. As to conditions: dicamba 2 lb ae/acre at planting, 1 lb ae/acre at V3, 1 lb ae/acre at first flower. The source says:
Plants were sprayed with 2 lb ae/acre dicamba (4×) on the day of planting, followed by 1 lb ae/acre dicamba (2×) dicamba at V3 stage, and 1 lb ae/acre dicamba (2×) dicamba at first flower (defined as >90% of plants having bolted and about 25% having at least one open flower). Injury ratings were taken seven days after each spray and expressed as percent injury compared to sprayed controls. For plants containing APG6+DMO, there were 9 progeny total from 2 events with dicamba injury ratings of ≤20% at each of the three rating periods. For plants containing RbcS+DMO, there were 77 plants across 16 events with dicamba tolerance of less than 20% at each of the three rating periods.

The test system of experiment [9] is transgenic F1 hybrid maize plants. The experiment in a line: F1 hybrid maize field trial of dicamba injury and yield. Format: in vivo. As to the method:
Dicamba tolerance was evaluated in a field trial for the transgenic F1 hybrid plants. The field trial included four treatments at two locations with two replications each. The four treatments were: (1) dicamba (Clarity®) applied at 2 lbs ae/acre (4×) at V2 followed by V4 followed by V8; (2) dicamba applied at 4 lbs at/acre (8×) at V2 followed by V4 followed by V8; (3) dicamba applied at 8 lbs at/acre (16×) at V2 followed by V4 followed by V8; and (4) dicamba applied at 16 lbs at/acre (32×) at V2 followed by V4 followed by V8. Crop injury was rated ten days after treatment and measured as crop injury percent per V-stage (CIPV2, CIPV4, or CIPV8). At the end of the season, grain was harvested and yield measured as bushels/acre. For both CIPV ratings and yield the least significant difference (LSD) at probability of 5% (p=0.05) was calculated.

[10] abbreviates: dicamba 2 lbs ae/acre (4×) at V2 fb V4 fb V8.
[11] abbreviates: dicamba 4 lbs (8×) at V2 fb V4 fb V8.
Where [12] appears, read: dicamba 8 lbs (16×) at V2 fb V4 fb V8.
Where [13] appears, read: dicamba 16 lbs (32×) at V2 fb V4 fb V8.

Turning to `Cc1nn(-c2cc(NS(C)(=O)=O)c(Cl)cc2Cl)c(=O)n1C(F)F` [Sulfentrazone, sulfentrazone], the “% Injury negative control” value in [1] (840 g ai/ha) worked out at 17.5% +/− 11.6; in [1] (1680 g ai/ha) it was 20% +/− 11.11. The “% Injury PPO H_N10” value in [2] (840 g ai/ha) and in experiment [2] (1680 g ai/ha) was 0% +/− 0 each time.
In the case of “RbcS (SEQ ID NO: 5): Ps.RbcS-3C chloroplast transit peptide, SEQ ID NO:5 (MASMISSSAVTTVSRASRGQSAAMAPFGGLKSMTGFPVRKVNTDITSITSNGGRVKC; listed as Pisum sativum) [reference compound]”, in [3] (dicamba 1 lb ae/acre), the “2X Tolerant events” value is recorded as 8/9. The “4X Tolerant events” value in [3] (dicamba 2 lb ae/acre) is 7/7.
Consider `C#CCN1C(=O)COc2cc(F)c(N3C(=O)C4=C(CCCC4)C3=O)cc21` [Flumioxazin, flumioxazin], for which the “% Injury negative control” value in experiment [1] (210 g ai/ha) was found to be 30% +/− 6.32; in [1] (420 g ai/ha), 60.8% +/− 6.38. For the same molecule, the “% Injury PPO H_N10” value in [2] (210 g ai/ha) came to 1.7% +/− 1.05; in experiment [2] (420 g ai/ha) it was 2.5% +/− 1.71.
For `CS(=O)(=O)NC(=O)c1cc(Oc2ccc(C(F)(F)F)cc2Cl)ccc1[N+](=O)[O-]` [Fomesafen, fomesafen], the “% Injury negative control” value in experiment [1] (840 g ai/ha) was 75.8% +/− 5.83; in [1] (1680 g ai/ha), 94.2% +/− 1.54. For the same molecule, the “% Injury PPO H_N10” value is 4.2% +/− 1.54 in experiment [2] (840 g ai/ha) and 5.8% +/− 0.83 in [2] (1680 g ai/ha).
Regarding `CCOC(=O)COc1ncccc1Oc1cc(-n2c(=O)cc(C(F)(F)F)n(C)c2=O)c(F)cc1Cl` [S-3100, ethyl [3-2-chloro-4-fluoro-5-(1-methyl-6-trifluoromethyl-2,4-dioxo-1,2,3,4-tetrahydropyrimidin-3-yl)phenoxy]-2-pyridyloxyl acetate], the “% Injury negative control” value in experiment [1] (80 g ai/ha, +/− standard error) is given as 19.2% +/− 2.39; in experiment [1] (160 g ai/ha) it was 20.8% +/− 8.31. The “% Injury PPO H_N10” value was found to be 3.3% +/− 1.67 in experiment [2] (80 g ai/ha, +/− standard error) and 4.2% +/− 1.54 in experiment [2] (160 g ai/ha).
Take `CC(C)N(C)S(=O)(=O)NC(=O)c1cc(-n2c(=O)cc(C(F)(F)F)n(C)c2=O)c(F)cc1Cl` [Saflufenacil, saflufenacil]: the “% Injury negative control” value in experiment [1] (200 g ai/ha) turned out to be 0% +/− 0; in experiment [1] (400 g ai/ha) it was 0.8% +/− 0.83. In addition, the “% Injury PPO H_N10” value in [2] (200 g ai/ha) turned out to be 0% +/− 0; in experiment [2] (400 g ai/ha), 0.8% +/− 0.83.

B1: APG6 + H_N10: APG6 CTP operably linked to PPO H_N10, construct for soybean and cotton (protein, listed as Arabidopsis thalinana, listed as Escherichia coli)
chain: MATATTTATAAFSGVVSVGTETRRIYSFSHLQPSAAFPAKPSSFKSLKLKQSARLTRRLDHRPFVVRCMKTLILFSTRDGQTREIASYLASELKELGIQADVANVHRIEEPQWENYDRVVIGASIRYGHYHSAFQEFVKKHATRLNSMPSAFYSVNLVARKPEKRTPQTNSYARKFLMNSQWRPDRCAVIAGALRYPRYRWYDRFMIKLIMKMSGGETDTRKEVVYTDWEQVANFAREIAHLTDKPTLK
Regarding B1, the results for the average injury in experiment [4] (14 multi-copy R0 cotton plants) and in [4] (21 single-copy R0 cotton plants) were 10.4% and 26.7%, respectively. Further, the “Injury R1 stage” value in experiment [5] (S-3100 5 g/ha) was 3%; in experiment [5] (S-3100 10 g/ha), 6.5%; in [5] (S-3100 30 g/ha), 15.7%. Besides, the results for the “Injury V4 stage” value in experiment [5] (S-3100 5 g/ha), in experiment [5] (S-3100 10 g/ha) and in experiment [5] (S-3100 30 g/ha) were 4.2%, 7.8% and 9.4%, respectively.

B2: Optimized APG6: amino-terminal optimized variant of the APG6 CTP, SEQ ID NO:2 (protein)
chain: MASSTTTATAAFSGVVSVGTETRRIYSFSHLQPSAAFPAKPSSFKSLKLKQSARLTRRLDHRPFVVRC
For B2, in experiment [6], the “dicamba % Injury, V4 stage” value was determined as 2.2%. For the same molecule, the “Dicamba Injury, V4 stage” value in experiment [7] amounted to 2.7%.

B3: APG6-DMO: APG6 CTP operably linked to dicamba monooxygenase (SEQ ID NO:20 in Brassica, SEQ ID NO:18 in maize) (protein)
chain: MLTFVRNAWYVAALPEELSEKPLGRTILDTPLALYRQPDGVVAALLDICPHRFAPLSDGILVNGHLQCPYHGLEFDGGGQCVHNPHGNGARPASLNVRSFPVVERDALIWIWPGDPALADPGAIPDFGCRVDPAYRTVGGYGHVDCNYKLLVDNLMDLGHAQYVHRANAQTDAFDRLEREVIVGDGEIQALMKIPGGTPSVLMAKFLRGANTPVDAWNDIRWNKVSAMLNFIAVAPEGTPKEQSIHSRGTHILTPETEASCHYFFGSSRNFGIDDPEMDGVLRSWQAQALVKEDKVVVEAIERRRAYVEANGIRPAMLSCDEAAVRVSREIEKLEQLEAA
Take B3: the “events giving plants with dicamba injury of 20% or less at each of three rating periods” value in experiment [8] turned out to be 2. In addition, in experiment [8] (rated 7 days after each spray), the “plants (progeny) with dicamba injury of 20% or less at each of three rating periods” value was found to be 9. Besides, the “CIPV4 (crop injury percent)” value in [9] (setting [10]) came out at 2%; in experiment [9] (setting [11]), 2%; in [9] (setting [12]) it was 4%; in [9] (setting [13]) it was 5.75%. For the same molecule, the “CIPV8 (crop injury percent)” value came to 3% in [9] (setting [10]), 7.5% in [9] (setting [11]), 11.25% in [9] (setting [12]) and 17.5% in experiment [9] (setting [13]). Moreover, the Yield in experiment [9] (setting [10]) came out at 231.99 bu/ac; in experiment [9] (setting [11]), 230.44 bu/ac; in experiment [9] (setting [12]) it was 242.37 bu/ac; in experiment [9] (setting [13]) it was 212.34 bu/ac. Also, the “CIPV2 (crop injury percent)” value in experiment [9] (dicamba 2 lbs ae/acre (4×) at V2 fb V4 fb V8, rated ten days after treatment) was found to be 0.75%; in experiment [9] (setting [11]), 1.5%; in [9] (setting [12]), 1.5%; in experiment [9] (setting [13]) it was 2%.

B4: 12G088600TP + H_N10: 12G088600TP CTP operably linked to PPO H_N10, construct for soybean (protein, listed as Gossypium raimondii, listed as Escherichia coli)
chain: MLNIAPSCVLASGISKPVTKMASTENKDDHSSAKRMKTLILFSTRDGQTREIASYLASELKELGIQADVANVHRIEEPQWENYDRVVIGASIRYGHYHSAFQEFVKKHATRLNSMPSAFYSVNLVARKPEKRTPQTNSYARKFLMNSQWRPDRCAVIAGALRYPRYRWYDRFMIKLIMKMSGGETDTRKEVVYTDWEQVANFAREIAHLTDKPTLK
As for B4, the “survival for rating at the R1 stage” value in experiment [5] (S-3100 5, 10 and 30 g ai/ha applied at V4) is “did not survive”. Besides, the “Injury V4 stage” value in experiment [5] (S-3100 5 g/ha) is 82.7%; in experiment [5] (S-3100 10 g/ha), 92.7%; in experiment [5] (S-3100 30 g/ha), 98.2%.
